The target in test [1] is T1, monovalent human PD-1 (purchased from Sino Biological Inc.) (human, UniProt Q15116 25-167).
T1 construct: Bought reagent
The test is described as follows: SPR Biacore T200; antibody captured on Protein A/G, monovalent human PD-1 as analyte. From the text: The first method was as follows: A CM5 sensor chip (GE healthcare) was activated by the Amine Coupling Kit (GE healthcare) and the Protein A/G fusion protein (Thermo Pierce) was immobilized on the chip with an amount of 2000 RU. FC3 (Flow cell 3) was a reference channel, and FC4 (Flow cell 4) was a sample channel.
For orientation: In SPR one partner is held on a chip, and binding of the other changes the refractive index at the surface.

The next test addresses human PD-1 (human, UniProt Q15116 25-288). The test is described as follows: cell-based or functional assay.
The target in another test is T2, human PD-1-hFc (human, UniProt Q15116 25-170, biotin-labelled with EZ-Link Sulfo-NHS-Biotin in the second SPR method).
T2 construct: extracellular domain; also called PD-1-hFc antigen; PD-1-hFc fusion protein; not shown: Fc region of human IgG1
T2 sequence (Q15116 25-170): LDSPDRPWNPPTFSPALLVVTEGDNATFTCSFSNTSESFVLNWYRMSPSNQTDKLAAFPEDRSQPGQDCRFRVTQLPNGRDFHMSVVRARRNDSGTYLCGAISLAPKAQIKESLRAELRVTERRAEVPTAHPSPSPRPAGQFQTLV
Put plainly: SPR Biacore T200; biotinylated PD-1-hFc on SA chip, antibody as analyte. How it is done:
The second determination method was as follows: PD-1-hFc in Example 1 was biotin-labelled using EZ-Link™ Sulfo-NHS-Biotin (Thermo Fisher Scientific), and the specific operation was carried out according to the instructions provided by the manufacturer. After labeling, the excess biotin labeling reagent was removed by dialysis; the aforementioned biotinylated PD-1-hFc fusion protein was immobilized on a chip using Sensor chip SA (GE healthcare). FC3 (Flow cell 3) was a reference channel, and FC4 (Flow cell 4) was a sample channel.

The next test addresses T3, CD28-hFc (UniProt P10747 19-152).
T3 construct: Bought reagent; construct not described; not shown: hFc of a bought product
The test is described as follows: ELISA, plate coated with CD28-hFc at 2 ug/ml, detection with HRP goat anti-human Fab, OD450. The method, then: (§1) The protein molecules such as CD28, CTLA-4, and ICOS belong to the same family as PD-1, and the sequences have homology. […] Each well was added with 200 μl of coating solution containing 1% BSA, and blocked at room temperature for 4 hours, then patted dry, and stored in a refrigerator at -20° C. until use. […] 100 μl of HRP-labeled goat anti-human Fab antibody (purchased from Sigma) diluted 1:5000 with PBST was added and incubated at room temperature for 1 hour; washed 3 times with PBST and patted dry. 100 μl of chromogenic solution (ELISA chromogenic solution A and chromogenic solution B were mixed in a volume ratio of 1:1 before use) was added to each well, then 100 μl of 2M H₂SO₄ stop solution was added to each well to stop the reaction. The OD value of each well was immediately measured at a wavelength of 450 nm using a microplate reader (Molecular Device).
(In general: ELISA stands for enzyme-linked immunosorbent assay.)

Another test deals with T4, ICOS-hFc (UniProt Q9Y6W8 21-141).
T4 construct: Bought reagent; construct not described; not shown: hFc of a bought product
T4 sequence (looked up): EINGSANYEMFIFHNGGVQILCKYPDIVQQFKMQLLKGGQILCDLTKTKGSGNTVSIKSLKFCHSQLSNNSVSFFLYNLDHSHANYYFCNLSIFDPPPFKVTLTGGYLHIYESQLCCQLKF
Put plainly: ELISA, plate coated with ICOS-hFc at 2 ug/ml, detection with HRP goat anti-human Fab, OD450. The method, then:
as §1

T1 sequence (Q15116 25-167 limits assumed): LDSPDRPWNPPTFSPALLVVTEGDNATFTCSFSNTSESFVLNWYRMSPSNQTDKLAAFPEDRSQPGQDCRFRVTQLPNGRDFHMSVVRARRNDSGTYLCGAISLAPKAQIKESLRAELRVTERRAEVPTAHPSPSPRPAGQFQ
Chain of human PD-1 (Q15116 25-288): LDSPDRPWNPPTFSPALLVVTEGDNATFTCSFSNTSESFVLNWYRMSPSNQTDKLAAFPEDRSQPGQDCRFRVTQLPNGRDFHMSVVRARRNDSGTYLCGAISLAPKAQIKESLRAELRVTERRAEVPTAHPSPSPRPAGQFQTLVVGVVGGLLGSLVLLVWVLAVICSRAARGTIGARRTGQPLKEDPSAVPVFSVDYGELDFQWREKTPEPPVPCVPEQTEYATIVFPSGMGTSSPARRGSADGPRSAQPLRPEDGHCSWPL

B1: mAb1-15-Humanized (antibody, human IgG4 S228P, kappa, V domains shown)
VH: EVQLVESGGGLVQPGGSLRLSCAASGFTFSSYDMSWVRQAPGKRLEWVATISGGGRYTYYPDSVKGRFTISRDNAKNSLYLQMNSLRAEDTAVYYCANRYDVDWFAYWGQGTLVTVSS
VL: EIVLTQSPATLSLSPGERATLSCRASQSISNNLHWYQQKPGQAPRLLIKYASQSISGIPARFSGSGSGTDFTLTISSLEPEDFAVYFCQQSNSWPLTFGQGTKVEIKR
notes: Human IgG4/Kappa, expressed in HEK293, purified on Protein A; also called humanized antibody No. 1-15
In general, Kd refers to the equilibrium constant for the complex coming apart. A high value points to weaker binding. The koff is the rate constant with which the complex falls apart. A low value points to slow dissociation. One may read the kon as a measure of how fast the partners come together. Higher therefore signals faster complex formation. Turning to B1, in test [1], the affinity, expressed as Kd, was 4.28 nM; the off-rate (koff) is 0.000117 s⁻¹; the association rate constant (kon) came to 27300 M⁻¹ s⁻¹. Further, in the test with human PD-1, the “Cell proliferation (FIG. 3), MLR EC50” value was 0.0172 µg/mL; the “IFN-γ secretion (FIG. 2), MLR EC50” value came to 0.0557 µg/mL; the “IL-2 secretion (FIG. 1), MLR EC50” value turned out to be 0.0165 µg/mL. In the test with human PD-1-hFc, this molecule came in with a Kd of 0.0408 nM, a koff of 3.12e-05 s⁻¹ and a kon of 764000 M⁻¹ s⁻¹.

B2: mAb1-25-Humanized (antibody, human IgG4 S228P, kappa, V domains shown)
VH: EVKLVESGGGLVQPGGSLRLSCAASGFAFSSYDMSWVRQAPGKRLEWVATISGGGRYTYYPDTVKGRFTISRDNAKNSHYLQMNSLRAEDTAVYFCASPYGGYFDVWGQGTLVTVSS
VL: EIVLTQSPATLSLSPGERATLSCRASQSISNFLHWYQQKPGQAPRLLIKYASQSISGIPARFSGSGSGTDFTLTISSLEPEDFAVYFCQQSNSWPHTFGQGTKVEIKR
notes: Human IgG4/Kappa, expressed in HEK293E, purified on Protein A; also called humanized antibody No. 1-25
Regarding B2, the binding result with CD28-hFc and with ICOS-hFc was “no binding (tested: log 3.6 (about 4000 ng/ml))” throughout.

B3: mAb1-15-Chimeric (antibody, human IgG4 S228P, kappa, V domains shown)
VH: EVNLVESGGGLVKPGGSLKLSCAASGFTFSSYDMSWVRQTPEKRLEWVATISGGGRYTYYPDSVKGRFTISRDNAKNNLYLQMSSLRSEDTALYYCANRYDVDWFAYWGQGTLVTVSA
VL: DIVLTQSPATLSVTPGDSVSLSCRASQSISNNLHWYQQKSHESPRLLIKYASQSISGIPSRFSGSGSGTDFTLSINSVETEDFGMYFCQQSNSWPLTFGAGTKLELNR
notes: Murine variable regions spliced to human IgG4 and Kappa constant regions; expressed in HEK293; also called chimeric antibody of murine antibody No. 1-15
In test [1], B3 had a Kd of 2.34 nM, an off-rate (koff) of 0.000148 s⁻¹ and a kon of 62900 M⁻¹ s⁻¹. For the same molecule, in the test with human PD-1, the “Cell proliferation (FIG. 3), MLR EC50” value came out at 0.0146 µg/mL; the “IFN-γ secretion (FIG. 2), MLR EC50” value was determined as 0.0284 µg/mL; the “IL-2 secretion (FIG. 1), MLR EC50” value turned out to be 0.0236 µg/mL.

B4: mAb1-25-Chimeric (antibody, human IgG4 S228P, kappa, V domains shown)
VH: EVKLVESGGDLVKPGGSLKLSCVASGFAFSSYDMSWVRQTPEKRLEWVATISGGGRYTYYPDTVKGRFTISRDNARNTHYLQMSSLRSEDTALYFCASPYGGYFDVWGAGTTVTVSS
VL: DIVLTQSPATLSVTPGARVSLSCRASQSISNFLHWYQQKSHESPRLLIKYASQSISGIPSRFSGSGSGTDFTLSISSVETEDFGMYFCQQSNSWPHTFGAGTKLELKR
notes: Murine variable regions spliced to human IgG4 and Kappa constant regions; expressed in HEK293; also called chimeric antibody of murine antibody No. 1-25
In test [1], B4 gave a Kd of 0.231 nM, a koff of 4.14e-05 s⁻¹ and a kon of 179000 M⁻¹ s⁻¹. In the test with human PD-1, the “Cell proliferation (FIG. 3), MLR EC50” value was 0.00669 µg/mL; the “IFN-γ secretion (FIG. 2), MLR EC50” value amounted to 0.0254 µg/mL; the “IL-2 secretion (FIG. 1), MLR EC50” value came out at 0.00995 µg/mL.
